From patent US20230295297A1 (Alector, published 2023)

T1: mouse TREM2 on cells (mouse, UniProt Q99NH8 19-227)
T1 construct: recombinant on BWZ cells (with DAP12) and native on mouse macrophages; also called BWZmT2; BWZ T2
T1 sequence: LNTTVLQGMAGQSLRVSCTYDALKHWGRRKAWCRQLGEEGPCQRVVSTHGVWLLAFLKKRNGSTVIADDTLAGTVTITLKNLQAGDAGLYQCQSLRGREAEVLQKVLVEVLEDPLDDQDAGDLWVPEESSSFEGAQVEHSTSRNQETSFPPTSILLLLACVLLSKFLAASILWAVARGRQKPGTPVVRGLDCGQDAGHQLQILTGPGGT

T2: human TREM2 on primary cells (human, UniProt Q9NZC2 19-230)
T2 construct: also called TREM2 on hDC; hMAC
T2 sequence: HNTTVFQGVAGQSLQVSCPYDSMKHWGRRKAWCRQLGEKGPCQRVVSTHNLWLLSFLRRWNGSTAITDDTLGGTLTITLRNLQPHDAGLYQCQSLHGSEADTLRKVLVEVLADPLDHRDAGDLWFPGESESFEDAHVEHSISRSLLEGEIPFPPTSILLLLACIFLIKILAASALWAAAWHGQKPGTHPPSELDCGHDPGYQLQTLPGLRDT

T3: recombinant human TREM2-DAP12 fusion protein expressed on cells (human)
T3 construct: also called HEKhT2; 293 cells expressing human TREM2; not shown: None of these limits is stated
T3 chain: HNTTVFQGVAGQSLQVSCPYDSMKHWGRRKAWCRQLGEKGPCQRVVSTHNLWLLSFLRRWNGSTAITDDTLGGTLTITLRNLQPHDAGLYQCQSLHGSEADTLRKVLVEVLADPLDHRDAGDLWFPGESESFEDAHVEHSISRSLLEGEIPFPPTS

T4: H154A
T4 construct: also called hTREM2-Dap12 chimera with H154A; not shown: Transmembrane/cytoplasmic stretch and the Dap12 portion of the chimera
T4 chain: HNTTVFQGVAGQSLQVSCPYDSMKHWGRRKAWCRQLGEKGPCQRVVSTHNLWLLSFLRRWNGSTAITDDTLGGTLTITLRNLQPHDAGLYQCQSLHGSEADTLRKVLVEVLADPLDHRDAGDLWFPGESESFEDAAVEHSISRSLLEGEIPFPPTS

T5: D152A
T5 construct: also called hTREM2-Dap12 chimera with D152A; not shown: Transmembrane/cytoplasmic stretch and the Dap12 portion of the chimera
T5 chain: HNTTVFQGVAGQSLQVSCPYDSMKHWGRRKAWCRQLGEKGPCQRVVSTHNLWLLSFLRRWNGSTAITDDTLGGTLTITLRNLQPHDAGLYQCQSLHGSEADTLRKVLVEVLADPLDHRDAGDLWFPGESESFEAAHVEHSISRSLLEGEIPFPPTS

T6: E151A
T6 construct: also called hTREM2-Dap12 chimera with E151A; not shown: Transmembrane/cytoplasmic stretch and the Dap12 portion of the chimera
T6 chain: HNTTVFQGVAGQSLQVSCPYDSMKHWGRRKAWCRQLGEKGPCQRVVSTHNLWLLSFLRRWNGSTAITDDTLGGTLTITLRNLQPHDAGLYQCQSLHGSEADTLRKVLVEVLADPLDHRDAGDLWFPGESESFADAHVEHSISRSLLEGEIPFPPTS

T7: G45A
T7 construct: also called hTREM2-Dap12 chimera with G45A; not shown: Transmembrane/cytoplasmic stretch and the Dap12 portion of the chimera
T7 chain: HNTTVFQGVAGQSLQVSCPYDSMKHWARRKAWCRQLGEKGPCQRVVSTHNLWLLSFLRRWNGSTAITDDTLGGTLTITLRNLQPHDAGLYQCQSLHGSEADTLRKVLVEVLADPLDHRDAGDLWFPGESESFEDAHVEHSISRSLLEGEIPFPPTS

T8: K42A
T8 construct: also called hTREM2-Dap12 chimera with K42A; not shown: Transmembrane/cytoplasmic stretch and the Dap12 portion of the chimera
T8 chain: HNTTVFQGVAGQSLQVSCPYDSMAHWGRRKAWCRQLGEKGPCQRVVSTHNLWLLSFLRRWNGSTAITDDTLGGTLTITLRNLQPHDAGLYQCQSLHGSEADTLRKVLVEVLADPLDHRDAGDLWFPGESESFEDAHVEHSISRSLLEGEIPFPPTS

T9: E156A
T9 construct: also called hTREM2-Dap12 chimera with E156A; not shown: Transmembrane/cytoplasmic stretch and the Dap12 portion of the chimera
T9 chain: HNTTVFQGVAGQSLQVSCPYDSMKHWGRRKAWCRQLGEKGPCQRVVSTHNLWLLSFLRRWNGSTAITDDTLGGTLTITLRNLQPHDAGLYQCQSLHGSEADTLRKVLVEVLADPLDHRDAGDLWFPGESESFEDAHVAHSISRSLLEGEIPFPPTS

T10: R77A
T10 construct: also called hTREM2-Dap12 chimera with R77A; not shown: Transmembrane/cytoplasmic stretch and the Dap12 portion of the chimera
T10 chain: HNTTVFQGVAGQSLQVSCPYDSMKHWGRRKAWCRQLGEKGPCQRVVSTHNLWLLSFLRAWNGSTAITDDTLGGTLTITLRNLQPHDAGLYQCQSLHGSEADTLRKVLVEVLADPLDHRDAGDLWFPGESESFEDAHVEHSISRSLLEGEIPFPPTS

T11: H114A
T11 construct: also called hTREM2-Dap12 chimera with H114A; not shown: Transmembrane/cytoplasmic stretch and the Dap12 portion of the chimera
T11 chain: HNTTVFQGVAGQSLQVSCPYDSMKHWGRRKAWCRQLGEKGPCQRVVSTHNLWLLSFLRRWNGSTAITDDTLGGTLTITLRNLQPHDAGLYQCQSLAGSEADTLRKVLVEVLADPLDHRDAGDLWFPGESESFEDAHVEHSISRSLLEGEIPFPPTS


What was measured:
mouse TREM2 on cells [1] = target: T1, mouse TREM2 on cells; assay: KD cell binding
[2] = target: T2, human TREM2 on primary cells; assay: FACS, primary hMAC
[3] = target: T3, recombinant human TREM2-DAP12 fusion …; assay: KD cell binding
[4] = target: T2, human TREM2 on primary cells; assay: FACS, primary hDC
[5] = target: T3, recombinant human TREM2-DAP12 fusion …; assay: FACS, HEKhT2 cells
mouse TREM2 on cells [6] = target: T1, mouse TREM2 on cells; assay: FACS on thioglycollate-induced macrophages of wild-type mice (mouse TREM2 only), gated CD11b+ F4/80+
H154A [7] = target: T4, H154A; assay: shotgun alanine scanning: immunofluorescence flow cytometry on HEK-293T cells expressing the mutant chimera
D152A [8] = target: T5, D152A; assay: as above
E151A [9] = target: T6, E151A; assay: as above
G45A = target: T7, G45A; assay: shotgun alanine scanning: immunofluorescence flow cytometry on HEK-293T cells expressing the mutant chimera; mean of duplicates, range in brackets
H154A [10] = target: T4, H154A; assay: as above
D152A [11] = target: T5, D152A; assay: as above
K42A = target: T8, K42A; assay: as above
E156A = target: T9, E156A; assay: as above
R77A = target: T10, R77A; assay: as above
H114A = target: T11, H114A; assay: as above
E151A [12] = target: T6, E151A; assay: as above

Binder | % Positive hMAC [2] [%] | Kd [3] [nM] | % Positive hDC [4] [%] | MFI HEKhT2 [5] [MFI] | further results
2H8 (antibody, IgG1, V domains shown, mIgG1) VH: EVQLVESGGGLVQPKGSLKLSCAASGFSFNTYAMNWVRQAPGKGLEWIARIRSKSNNYATYYADSVKDRFTCSRDDSENMFYLQLSSLKTEDTAMYYCVRHGDGNLWYIDVWGTGTTVTVSS VL: NVLTQSPALMSASPGEKVTMTCSASSSVSYMYWYQQKPRSSPKPWIYLTSILASGVPARFSGSGSGTSYSLTISSMEAEDAATYYCQQWSFNPYTFGGGTKLVIK | – | – | – | – | Kd (mouse TREM2 on cells [1]): 6.86 nM
7F8 (antibody, IgG1, V domains shown, mIgG1) VH: EVQLVESGGGLVQPKGSLKLSCAASGFSFNTYAMNWVRQAPGKGLEWIARIRSKSNNYATYYADSVKDRITCSRDDSENMFYLQLSSLKTEDTAMYYCVRHGDGNLWYIDVWGTGTTVTVST VL: VLTQSPALMSASPGEKVTMTCSASSSVSYMYWYQQKPRSSPKPWIYLTSILASGVPARFSGSGSGTSYSLTINNMEAEDAATYYCQQWSFNPYTFGGGTKLVIK | – | – | – | – | Kd (mouse TREM2 on cells [1]): 1.78 nM
3A2 (antibody, IgG1, V domains shown, mIgG1; variable domains built FR1-HVR1-FR2-HVR2-FR3-HVR3-FR4) VH: QVQLQQSGAELVKPGASVKMSCKTSGYPFSNFWITWVKQRPGQGLVWIGDIYPGSDNSNYNEKFKTKATLTVDTSSSTAYMHLSSLTSEDSAVYFCAREAYYTNPGFAYWGQGTLVTVST VL: DVVMTQTPLSLPVSLGDQASISCRSSQTIIHSNGNTYLEWYLRKPGQSPKLLIYKVSNRFSGVPDRFSGSGSGTDFTLKISRVEAEDLGVYYCFQGSHVPYTFGGGTELEIK | 18 | 4.98 | 77 | 7300 | –
6H2 (antibody, IgG2a, V domains shown, mIgG2a) VH: QVQLQESGPGLVQPSQSLSIICTVSAFSLTNYAVHWIRQSPGKGLEWLGVIWSGGSTAFNAAFISRLNISKDNSKSQVFFKMNSLQSDDTAIYYCATHYYRSTYAFSYWGQGTLVTVSA VL: DVLMTQTPLSLPVSLGDQASISCRSSQSIVHSNGNTYLEWYLQKPGQSPKLLIYKVSNRFSGVPDRFSGSGSGTDFTLKISRVEAEDLGVYYCFQGSHVPFTFGSGTKLEIK | – | 5.4 | 83.9 | 13500 | –
8A1 (antibody, IgG2a, V domains shown, mIgG2a) VH: EVQLQQSGAELVKPGASVKISCKASGYAFSNYWMSWVKQRPGKGLEWIGQIYPGDGDTKYNGKFEGKATLTADKSSSTAYMQLSSLTSEDSAVYFCSREKGADYYGSTYSAWFSYWGQGTLVTVSA VL: DIQMTQSPASLSVSVGETVTITCRTSENVYSNLAWYQQKQGKSPQLLVYAATNLADGVPSRFSASGSATQFSLKINSLQSADFGSYYCHHFWGTPYTFGGGTKLEMN | 34 | 4.64 | 94 | 11000 | –

Second part, led by results:

% Positive hMAC [2] [%] | Kd [3] [nM] | % Positive hDC [4] [%] | MFI HEKhT2 [5] [MFI] | Binder | further results
64 | 4.24 | 96 | 11900 | 10A9 (antibody, IgG1, V domains shown, mIgG1) VH: QVQLQQSGAEVVKPGASVKMSCKTSGYPFSNFWITWVKQRPGQGLVWIGDIYPGSDNRNFNERFKTKATLTVDTSSSTAYMHLSSLTSEDSAVYFCAREAYYTNPGFAYWGQGTLVTVSA VL: DVVMTQTPLSLPVSLGDQASISCRSSQTIIHSNGNTYLEWYLRKPGQSPKLLIYKVSNRFCGVPDRFSGSGSGTDFTLKISRVEAEDLGVYYCFQGSHVPYTFGGGTELEIK | binding result (mouse TREM2 on cells [6]): no binding
26 | 0.96 | 73 | 2910 | 9F5 (antibody, IgG1, V domains shown, mIgG1; VH FR 169/184/202/216, HVR 60/78/97; also called mAb T2-9F5.1; 9F5 MAb) VH: QVQLQQSGPELVKPGASLKISCKASGYAFSSSWMNWVKQRPGKGLEWIGRIYPGDGDTNYNGEFRVRATLTADTSSTTAYMQLSSLTSEDSAVYFCARLLRNQPGESYAMDYWGQGASVTVSS VL: DVVMTQTPLSLPVSLGDQASISCRSSQSLVHSNGYTYLHWYLQKPGQSPKLLIYKVSNRFSGVPDRFSGSGSGTDFTLKISRVEADDLGVYFCSQSTRVPYTFGGGTKLEIK | binding result (mouse TREM2 on cells [6]): no binding; binding result (H154A [7]): no binding; binding result (D152A [8]): no binding; binding result (E151A [9]): no binding; Binding Reactivity (% WT) (G45A): 145 % WT; Binding Reactivity (% WT) (H154A [10]): 3 % WT; Binding Reactivity (% WT) (D152A [11]): 2.7 % WT; Binding Reactivity (% WT) (K42A): 131 % WT; Binding Reactivity (% WT) (E156A): 17.7 % WT; Binding Reactivity (% WT) (R77A): 124 % WT; Binding Reactivity (% WT) (H114A): 114 % WT; Binding Reactivity (% WT) (E151A [12]): 4.8 % WT
20 | 9.06 | 60 | 3080 | 9G1 (antibody, IgG1, V domains shown, mIgG1) VH: QVQLQQSGAELVKPGASVKLSCKASGYIFTTYWIHWVKQRPGRGPEWIGRIDPNNGDTNYNEKFKTKATLTVDKPSSTADMQLSSLTSEDSAVYYCVMTGTDFDYWGQGTTLTVSS VL: DVLMTQTPLSLPVSLGDQASISCRFSQSLVHSNGNTYLHWYLQKPGQSPKLLIYKVSNRFSGVPDRFSGSGSGTDFTLRISGVEAEDLGVYFCSQSTRVPPTFGGGTKLEIK | –
